Patent US20220088180A1

Experiments:
Assay in all cases: radioligand competition, purified MHC
HLA-B*15:01 (human) = biological target: HLA-B*15:01 (human)
HLA-B*44:03 (human) = biological target: HLA-B*44:03 (human)
HLA-B*07:02 (human) = biological target: HLA-B*07:02 (human)
HLA-A*01:01 (human) = biological target: HLA-A*01:01 (human)
HLA-A*02:01 (human) = biological target: HLA-A*02:01 (human)
HLA-B*51:01 (human) = biological target: HLA-B*51:01 (human)
HLA-B*18:01 (human) = biological target: HLA-B*18:01 (human)
HLA-B*44:02 (human) = biological target: HLA-B*44:02 (human)
HLA-A*26:01 (human) = biological target: HLA-A*26:01 (human)

Binder | IC50 (HLA-B*15:01 (human)) [µM] | IC50 (HLA-B*44:03 (human)) [µM] | IC50 (HLA-B*07:02 (human)) [µM] | IC50 (HLA-A*01:01 (human)) [µM] | IC50 (HLA-A*02:01 (human)) [µM] | IC50 (HLA-B*51:01 (human)) [µM] | IC50 (HLA-B*18:01 (human)) [µM] | IC50 (HLA-B*44:02 (human)) [µM] | IC50 (HLA-A*26:01 (human)) [µM]
FASEAARVV (modifications not checked) [… (SEQ ID NO: 17)] | 2.55 | > 70 | 8.55 | > 70 | 0.495 | 0.207 | 49.5 | > 70 | 0.734
APHGHVMVEL (modifications not checked) [… (SEQ ID NO: 14)] | > 70 | > 70 | 0.0061 | > 70 | > 70 | > 70 | > 70 | > 70 | > 70
SEFSSLPSY (modifications not checked) [… (SEQ ID NO: 27)] | 0.0069 |  | > 70 | 39.8 | > 70 | > 70 | 0.00037 |  | 0.875
EEFEPSTQYEY (modifications not checked) [… (SEQ ID NO: 20)] | 0.078 | 0.00041 | > 70 | > 70 | > 70 | > 70 | 0.0011 | 0.05 | 18.8
EIKESVQTF (modifications not checked) [… (SEQ ID NO: 15)] | 4.93 | > 70 | > 70 | > 70 | > 70 | > 70 | > 70 | 37.2 | 0.0078
DEFVVVTV (modifications not checked) [DEFVVVTV (SEQ ID NO: 11)] | 2.05 | 1.28 | 52.8 | > 70 | 13 | 12.8 | < 0.0005 | 2.79 | 9.55
STSAFVETV (modifications not checked) [… (SEQ ID NO: 19)] | 10.4 | > 70 | 8.86 | 12.7 | 0.026 | > 70 | > 70 | > 70 | 12.1
APRITFGGP (modifications not checked) [… (SEQ ID NO: 42)] | > 70 | > 70 | 0.059 | > 70 | 0.893 | > 70 | > 70 | > 70 | > 70
KNIDGYFKIY (modifications not checked) [… (SEQ ID NO: 36)] | 1.45 | > 70 | > 70 | > 70 | 11.8 | > 70 | > 70 | > 70 | > 70
GPMVLRGLIT (modifications not checked) [… (SEQ ID NO: 6)] | 8.55 |  |  |  | 2 |  |  |  | 0.884
GLITLSYHL (modifications not checked) [… (SEQ ID NO: 5)] | 1.5 | 24.3 | 14.3 |  | < 0.0005 |  |  | 26 | 40.3
LEDKAFQL (modifications not checked) [LEDKAFQL (SEQ ID NO: 10)] | 14.7 | 0.208 |  |  | 3.89 |  | 0.035 | 35.4 | 
LATNNLVVM (modifications not checked) [… (SEQ ID NO: 16)] | 0.315 | 46.5 | 0.055 | > 70 | > 70 | 32.7 | > 70 | 40.2 | > 70
